From paper PMC6379675, “Structural insights into chromosome attachment to the nuclear envelope by an inner nuclear membrane protein Bqt4 in fission yeast” (Nucleic Acids Research, 2018)
Changes are numbered by the printed parent chain. Names and notes keep the numbering of the source.

Tests used:
Bqt4_(2–180) = molecular target: T1, Bqt4_(2–180) (S. pombe, UniProt O60158 2-180); experiment: pull-down; 30 μg GST-tagged Rap1 and 20 μg purified Bqt4 on glutathione-Sepharose 4B beads, 25 mM Tris pH 8.0, 100 mM NaCl, 10% glycerol, 4°C, 40 min; SDS-PAGE; conditions: both partners purified
T1 construct: Bqt4, S. pombe, residues 2-180; also called N-terminal region of Bqt4; source: E. coli BL21(DE3), purified (Ni-NTA, on-beads Ulp1 digestion, Superdex200); not shown: His6, N-terminal, cleaved; SUMO, N-terminal, cleaved
T1 sequence (looked up): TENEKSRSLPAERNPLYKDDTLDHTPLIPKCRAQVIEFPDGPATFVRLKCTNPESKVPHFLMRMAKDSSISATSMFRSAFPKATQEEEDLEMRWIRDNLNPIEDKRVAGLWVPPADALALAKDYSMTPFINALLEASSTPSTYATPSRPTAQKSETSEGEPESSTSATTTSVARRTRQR

[1] = molecular target: T2, Bqt4_(2–140), N-terminal domain of Bqt4 (S. pombe, UniProt O60158 2-140); experiment: as above; conditions: both partners purified
T2 construct: Bqt4, S. pombe inner nuclear membrane protein, residues 2-140; also called Bqt4NTD; Bqt4NTD^WT; source: E. coli BL21(DE3), purified (Ni-NTA, on-beads Ulp1 digestion, Superdex200); not shown: His6, N-terminal, cleaved; SUMO, N-terminal, cleaved
T2 sequence (looked up): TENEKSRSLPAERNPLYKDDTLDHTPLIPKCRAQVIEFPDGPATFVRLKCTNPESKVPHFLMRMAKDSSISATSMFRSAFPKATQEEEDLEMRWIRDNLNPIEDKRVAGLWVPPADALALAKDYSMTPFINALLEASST

[2] = molecular target: T3, Bqt4_(2–140), N-terminal domain of Bqt4 (S. pombe, UniProt O60158 2-140); experiment: ITC
T3 chain: T2 sequence (looked up)

Bqt4NTD R33A = molecular target: T4, Bqt4NTD R33A (S. pombe, UniProt O60158 2-140, R33A); experiment: ITC; ITC200; peptide (Rap1 479-527 at 1000–1500 μM) titrated into Bqt4 2-140 (100–150 μM), 20°C, 20 mM Tris–HCl pH 8.0, 150 mM NaCl; one binding site model; two independent experiments; conditions: both partners purified
T4 construct: Bqt4, S. pombe, residues 2-140; also called Bqt4 (R33A); source: E. coli BL21(DE3), purified (Ni-NTA, on-beads Ulp1 digestion, Superdex200); not shown: His6, N-terminal, cleaved; SUMO, N-terminal, cleaved
T4 sequence (looked up): T2 sequence (looked up) with R32A

[3] = molecular target: T2, Bqt4_(2–140), N-terminal domain of Bqt4; experiment: as above; conditions: both partners purified
Bqt4NTD R33A, O60158 = molecular target: T5, Bqt4NTD R33A, O60158; experiment: ITC; conditions: chain shown with the change;; parent: 11.4 ± 1.2
T5 chain: T2 sequence (looked up) with R32A

Bqt4NTD D90R = molecular target: T6, Bqt4NTD D90R (S. pombe, UniProt O60158 2-140, D90 into arginine); experiment: ITC; ITC200; peptide (Rap1 479-527 at 1000–1500 μM) titrated into Bqt4 2-140 (100–150 μM), 20°C, 20 mM Tris–HCl pH 8.0, 150 mM NaCl; one binding site model; two independent experiments; conditions: both partners purified
T6 construct: Bqt4, S. pombe, residues 2-140; also called Bqt4^D90 substituted into arginine; source: E. coli BL21(DE3), purified (Ni-NTA, on-beads Ulp1 digestion, Superdex200); not shown: His6, N-terminal, cleaved; SUMO, N-terminal, cleaved
T6 sequence (looked up): T2 sequence (looked up) with D89R

Bqt4NTD D90R, O60158 = molecular target: T7, Bqt4NTD D90R, O60158; experiment: ITC; conditions: chain shown with the change;; parent: 11.4 ± 1.2
T7 chain: T2 sequence (looked up) with D89R

[4] = molecular target: T8, SUMO_(21–92)-Bqt4_(8–140) fusion protein (S. pombe, UniProt O60158 8-140); experiment: crystal structure; Bqt4 construct and peptide mixed at a molar ratio of 1:1.5; molecular replacement; conditions: both partners purified
T8 construct: Bqt4, S. pombe, residues 8-140; crystallisation fusion; also called SUMO-Bqt4NTD; Sumo-fused Bqt4_(8–140); not shown: SUMO (residues 21-92), N-terminal, kept
T8 sequence (looked up): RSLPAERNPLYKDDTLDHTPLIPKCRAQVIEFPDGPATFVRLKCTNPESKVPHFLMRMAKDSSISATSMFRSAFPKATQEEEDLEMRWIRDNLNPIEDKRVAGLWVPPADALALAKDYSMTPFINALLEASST

B1: GST-tagged Rap1_(490–513) (peptide, UniProt Q96TL7 490-513, looked up)
chain: ENISEKSSDDEEAFEKQVTSSYSS
notes: also called GST-Rap1BBM; source: E. coli BL21(DE3); not shown: GST, N-terminal, kept
Question: Does B1 bind (Bqt4_(2–180))?
Answer: binds

Question: Does B1 bind [1]?
Answer: binds

B2: Rap1_(479–527) S497E (domain or fragment, S. pombe, UniProt Q96TL7 479-527, looked up)
chain: EIPLLSDYSDSENISEKSEDDEEAFEKQVTSSYSSPIKVKSQGKSSKGS
notes: phosphomimetic; also called Rap1^S497E; source: E. coli BL21(DE3), purified (glutathione-Sepharose 4B, on-beads 3C digestion, Superdex75); not shown: GST, N-terminal, cleaved
Question: Which Kd [2] does the source give for B2 here?
Answer: 2.6 µM

Question: Does B2 bind (Bqt4NTD R33A)?
Answer: binds

Question: Does B2 bind [3]?
Answer: binds

Question: What about the Kd (Bqt4NTD R33A, O60158) of the same binder?
Answer: 24.1 µM

B3: Rap1_(479–527) S513E (domain or fragment, S. pombe, UniProt Q96TL7 479-527, looked up)
chain: B2 chain with E19S, S35E
notes: phosphomimetic; also called Rap1^S513E; source: E. coli BL21(DE3), purified (glutathione-Sepharose 4B, on-beads 3C digestion, Superdex75); not shown: GST, N-terminal, cleaved
Question: What does the source list for B3?
Answer: Kd [2]: 57.8 µM; binding result (Bqt4NTD D90R): binds; fold decrease in binding affinity against wild-type Rap1 [3]: 5 fold; Kd (Bqt4NTD D90R, O60158): 21.2 µM

B4: Rap1_(498–512) (peptide)
peptide: GPLDDEEAFEKQVTSSYS
notes: three extra residues left at the N-terminus after removal of GST by 3C protease; also called Rap1BBM (in the crystal); source: E. coli BL21(DE3), purified (glutathione-Sepharose 4B, on-beads 3C digestion, Superdex75); not shown: GST, N-terminal, cleaved
Question: Does B4 bind [4]?
Answer: binds
